Columns and labels:
[1] = biological target: human CD79B antigen (coating antigen of the ELISA, construct not stated) (human) (UniProt P40259); assay: ELISA, plate coated with antigen at 1 ug/mL, serial antibody dilutions, OD450
[2] = biological target: fusion protein of human CD79B extracellular domain (ECD) and His tag (human CD79B ECD-His) (human) (UniProt P40259); assay: SPR (Biacore 8K; by Example 2 human CD79B-His immobilised on CM5 chip, antibody flowed over)
fusion protein of human CD79B extracellular domain (ECD) and His tag (human CD79B ECD-His) (human), sequence (P40259 29-159 limits assumed): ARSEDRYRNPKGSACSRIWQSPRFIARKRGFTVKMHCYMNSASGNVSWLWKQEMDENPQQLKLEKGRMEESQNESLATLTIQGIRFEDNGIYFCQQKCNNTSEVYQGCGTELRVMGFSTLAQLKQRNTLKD

human CD79B antigen (coating antigen of the ELISA, construct not stated) (human), sequence (P40259 29-159 limits assumed): as above

SN8 (antibody)
EC50 (read off the curve) [1]: 0.1 nM
Kd [2]: 5.98 nM
